Here are results for 1 molecule from article PMC12658140 (2025).

Among the targets are H3 stem with R32HA2 (influenza A virus H3N2 …); H3 stem with I32HA2 (influenza A virus H3N2 …); H3 stem with T32HA2 (influenza A virus H3N2 …).
Assay in all cases: BLI
(Biolayer interferometry detects binding as a change in optical thickness at a sensor tip.)

B1: 240-14 IgA 2F02 Fab (Fab, V domains shown)
VH: EVQLLESGGGLVQPGGSLRLSCAASGFTFSTYAMSWVRQAPGKGLEWVSTISGSGGSTYDAESVKGRFTISRDNSKNTLYLQMNSLRAEDTAVYYCAKEGGDFWSGYYANWFDPWGQGTLVTVSS
VL: QSALTQPRSVSGSPGQSVTISCTGTRSDVGGYNYVSWYQQHPGKAPKVIIYDVKKRPSGVPDRFSGSKSGNTASLTISGLQAEDEADYYCSAFAGSHTLFGGGTKVTVL
In the case of B1, the dissociation constant (Kd) (usually the free concentration of one partner at which half of the binding sites on the other are occupied at equilibrium, for simple one-to-one binding) in the experiment with H3 stem with R32HA2 worked out at 28 nM; with H3 stem with I32HA2, 22 nM; with H3 stem with T32HA2 it was 17 nM.
